Reference: patent US20090169520A1, “Compounds, Pharmaceutical Compositions and Therapeutic Methods of Preventing and Treating Diseases and Disorders Associated With Amyloid Fibril Formation” (YISSUM RESEARCH DEVELOPMENT COMPANY OF THE HEBREW …, priority 2005, published 2009)
Marks after values point to notes of the source that are not given here.

T1: Amylin (Homo sapiens, UniProt P10997)
T1 sequence (P10997 34-70 limits assumed): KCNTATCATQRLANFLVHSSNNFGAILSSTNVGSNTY


Columns and labels:
Format in all cases: biochemical
[1] = target: T2, Aβ (1-40) peptide (Homo sapiens, UniProt P05067); assay: In vitro formation of amyloid fibril from Aβ (1-40), Thioflavin T fluorescence; settings: for effect on Aβ fibril formation (in words): 33 μM Aβ; for Lag (fold change) / Rate (fold change): relative to No addition, asterisk = statistically significant
T2 construct: synthetic Aβ (1-40) peptide; purchased Biosource, Camarillo, Calif., USA; host or cells: chemical synthesis
T2 sequence (P05067 672-711 limits assumed): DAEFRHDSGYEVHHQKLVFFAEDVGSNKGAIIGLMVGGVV
Excerpt: In vitro formation of amyloidfibril—In vitro formation of amyloid fibril was in the presence of the synthetic Aβ (1-40) peptide (Biosource, Camarillo, Calif., USA) as a precursor. The reporter molecule was Thioflavin T (ThT) (Sigma, Cat. No. T-3516, Jerusalem, Israel), a benzothiazole dye that undergoes a shift in its excitation spectrum (from 340 nm to 450 nm) when interacting with β-sheet amyloid structures. The resultant ThT fluorescence signal is proportional to the amount of amyloid formed (LeVine, 1993). A stock solution of Aβ in dimethylsulfoxide (DMSO) was diluted with phosphate-buffered saline (PBS) containing 0.02% Na-Azid to a final concentration of 162 μM and 20 μl of the diluted Aβ solution was placed in each well of a 96 multiwell plate (Nunc, Roskilde, Denmark). After 20 minutes of pre-incubation at room temperature of the Aβ samples (20 μl), 80 μl of 1.25 μM ThT in 50 mM glycine buffer, pH 8.5, was added. Incubation was with shaking at 200 rpm for 6 to 8 hours at the noted temperatures. Fluorescence was measured continuously or at 30-40 minute intervals, using a Spectro-fluorometer (Tecan, Maennedorf, Switzerland). Excitation and emission wavelengths were 450 nm and 485 nm, respectively. Enhancement of the fibrillation process by the different combinations of water-dissolved cholinesterases and peptides mimicking fragments thereof, was evaluated by dissecting the time curves into two stages: the lag before the onset of the fluorescence increase (the nucleation process) and the average rate of fluorescence increase at several time points (rate of fibrils formation). Statistics analysis was performed using the Kaleidagraph Software (Reading, Pa., USA).
BChE attenuates amyloid fibrils formation—Amyloid fibril (Aβ) formation was quantified by measuring changes in ThT fluorescence. As predicted, Aβ fibrils were spontaneously formed in vitro provided that the Aβ peptide was present above 5 μM. […] Reactions were performed in the absence or presence of increasing concentrations of purified human BChE (SEQ ID NO:2; FIG. 1a), recombinant ACHE-S (SEQ ID NO:6; FIG. 1b) or both (FIGS. 1c and d). […] Due to the complex kinetics of the fibril formation process the apparent rate of change in ThT fluorescence was repeatedly determined during the exponential phase of increase in its signal (at 390±20 minutes). […] In contrast, addition of similar doses of AChE to Aβ, predictably shortened by half the lag time prior to fibril formation, again in a dose dependent manner (FIG. 1e). The lag period therefore decreased from 240 minutes to 150 minutes and the maximal rate of fibril formation increased from 0.057 to 0.116 fluorescence units (FU)/min for Aβ alone as compared to Aβ in the presence of 0.36 μM AChE-S (FIG. 1b and Table 7, hereinbelow). When increasing doses of hBChE were added to a combined mix of 33 μM Aβ with 0.36 μM AChE-S, a dose-dependent interference with the fibril formation process was observed (FIG. 1c and 2a). Thus, BChE is capable of reducing the rate of fibrillation of Aβ alone, or Aβ which is formed in the presence of AChE.

[2] = Rate of hydrolysis of AThCh/BThCh by cholinesterases; settings: for Rate of hydrolysis of AThCh/BThCh: average of three experiments
Procedure: BChE biochemistry—Serum cholinesterase catalytic activity measurements are based on a spectrophotometric method adapted to a microtiter plate assay. Butyrylthiocholine (BTCh, Sigma) hydrolysis rates are measured following 20 minutes incubation with 5×10^−5 M tetraisopropyl pyrophosphoramide (iso-OMPA, Sigma), a specific BChE inhibitor or 10^−5 M 1,5-bis(4-allyldimethylammoniumphenyl) pentan-[…] dibromide (BW284c51, Sigma, A9013), a specific AChE inhibitor. Addition of both inhibitors reduces hydrolysis to the rate of spontaneous hydrolysis measured in control reactions lacking enzyme or substrate, attesting to the specificity of these serum activities. Readings at 405 nm are repeated at 2-minute intervals for 20 minutes. Non-enzymatic hydrolysis of substrate is subtracted from the total rate of hydrolysis. Enzyme activity is calculated using the molar extinction coefficient for 5-thio-2-nitrobenzoate [13,600 M^−1×cm^−1] [Ellman, G. L. et al. (1961) Biochem. Pharmacol. 7:88-95].
In addition, BChE is soluble and thus accessible to circulating ACh. Moreover, the substrate of preference of BChE is different than that of ACHE. Thus, over the range of substrate concentrations 0.1 to 25 mM, the ratio of hydrolysis of AThCh relative to BThCh differs between the enzymes (Table 8, hereinbelow).

[3] = target: T1, Amylin; assay: Amylin amyloid fibril formation, Thioflavin T fluorescence; settings: 20 μM amylin
Procedure: FIG. 6 is a graph illustrating the effect of BChE in preventing amylin amyloid fibril formation. Amylin at a concentration of 20 μM was incubated with Thiofalvin T (at a concentration of 1 μM) and the formation of amyloid fibril was measured by following the Thiofalvin T fluorescence intensity [excitation (450 nm); emission (485 nm)] in the presence or absence of 0.24 μM BChE (purified from pooled human plasma). Note that the addition of BChE increases the lag time for amylin fibrillation from 30 minutes to 110 minutes.
To test the ability of BChE to prevent amylin amyloid fibril formation, the present inventors have tested the rate of amylin fibrillation (at a concentration of 20 μM) in the presence or absence of 0.24 μM BChE (purified from pooled human serum). As is shown in FIG. 6, BChE completely attenuated the formation of amylin fibrils for 100 minutes, and increased the lag time of amyloid fibril formation from 30 minutes to 110 minutes.

Row | Molecule | time for which fibril formation was totally prevented ([1]; 0.4 μM BChE added to 33 μM Aβ) | effect on Aβ fibril formation (in words) ([1]; ThT fluorescence) | concentration needed for complete attenuation of Aβ fibrillation ([1]; attenuation for 400 minutes of incubation, ThT fluorescence) [ng/mL] | Lag (fold change) [1] | Rate (fold change) [1] | Rate of hydrolysis of AThCh/BThCh ([2]; Substrate 0.1 mM) | Rate of hydrolysis of AThCh/BThCh ([2]; Substrate 25.0 mM) | BChE capacity to hydrolyze ACh, fold lower than that of AChE ([2]; increased / high ACh concentrations (as in 25 mM)) [fold] | BChE capacity of ACh hydrolysis in the circulation, fold lower than that of AChE ([2]; normal circumstances, low ACh) | time for which formation of amylin fibrils was completely attenuated ([3]; 0.24 μM BChE) [min] | lag time of amylin amyloid fibril formation ([3]; 1 μM ThT, 0.24 μM BChE (without BChE 30 minutes)) [min] | AThCh hydrolysis ratio difference of AChE:BChE ([2]; at 0.1 mM substrate) [fold] | AThCh hydrolysis ratio difference of AChE:BChE ([2]; at 25 mM substrate) [fold] | maximal rate of fibril formation ([1]; Aβ in the presence of 0.36 μM AChE-S (Aβ alone 0.057)) [FU/min] | lag period prior to fibril formation ([1]; Aβ in the presence of 0.36 μM AChE-S (Aβ alone 240 minutes)) [min]
1 | BChE: Purified human BChE from human serum (Sigma) (protein, listed as Homo sapiens) MHSKVTIICIRFLFWFLLLCMLIGKSHTEDDIIIATKNGKVRGMNLTVFGGTVTAFLGIPYAQPPLGRLRFKKPQSLTKWSDIWNATKYANSCCQNIDQSFPGFHGSEMWNPNTDLSEDCLYLNVWIPAPKPKNATVLIWIYGGGFQTGTSSLHVYDGKFLARVERVIVVSMNYRVGALGFLALPGNPEAPGNMGLFDQQLALQWVQKNIAAFGGNPKSVTLFGESAGAASVSLHLLSPGSHSLFTRAILQSGSFNAPWAVTSLYEARNRTLNLAKLTGCSRENETEIIKCLRNKDPQEILLNEAFVVPYGTPLSVNFGPTVDGDFLTDMPDILLELGQFKKTQILVGVNKDEGTAFLVYGAPGFSKDNNSIITRKEFQEGLKIFFPGVSEFGKESILFHYTDWVDDQRPENYREALGDVVGDYNFICPALEFTKKFSEWGNNAFFYYFEHRSSKLPWPEWMGVMHGYEIEFVFGLPLERRDNYTKAEEILSRSIVKRWANFAKYGNPNETQNNSTSWPVFKSTEQKYLTLNTESTRIMTKLRAQQCRFWTSFFPKVLEMTGNIDEAEWEWKAGFHRWNNYMMDWKNQFNDYTSKKESCVGL | over 600 minutes | prolonged the lag and reduced the apparent rate of amyloid formation | 30000 | 1.4* fold change | 0.3* fold change | 0.45 | 0.20 | 12 | ca. 80 fold | 100 | 110 | – | – | – | –
2 | hRBC AChE: human erythrocytes ACHE compared with serum BChE in Table 8 (protein) EGREDAELLVTVRGGRLRGIRLKTPGGPVSAFLGIPFAEPPMGPRRFLPPEPKQPWSGVVDATTFQSVCYQYVDTLYPGFEGTEMWNPNRELSEDCLYLNVWTPYPRPTSPTPVLVWIYGGGFYSGASSLDVYDGRFLVQAERTVLVSMNYRVGAFGFLALPGSREAPGNVGLLDQRLALQWVQENVAAFGGDPTSVTLFGESAGAASVGMHLLSPPSRGLFHRAVLQSGAPNGPWATVGMGEARRRATQLAHLVGCPPGGTGGNDTELVACLRTRPAQVLVNHEWHVLPQESVFRFSFVPVVDGDFLSDTPEALINAGDFHGLQVLVGVVKDEGSYFLVYGAPGFSKDNESLISRAEFLAGVRVGVPQVSDLAAEAVVLHYTDWLHPEDPARLREALSDVVGDHNVVCPVAQLAGRLAAQGARVYAYVFEHRASTLSWPLWMGVPHGYEIEFIFGIPLDPSRNYTAEEKIFAQRLMRYWANFARTGDPNEPRDPKAPQWPPYTAGAQQYVSLDLRPLEVRRGLRAQACAFWNRFLPKLLSATDTLDEAERQWKAEFHRWSSYMVHWKNQFDHYSKQDRCSDL | – | – | – | – | – | 120 | 7.2 | – | – | – | – | 245 | 36 | – | –
3 | ASP63: synthetic AChE-S C-terminal peptide, mimics residues 548-610 in hAChE (ASP63 Synthetic peptide, synthetic AChE-S C-terminal peptide, mimics residues 548-610 in hAChE) PLEVRRGLRAQACAFWNRFLPKLLSATDTLDEAERQWKAEFHRWSSYMVHWKNQFDHYSKQDR | – | no significant effect on amyloid formation | – | 1.5 fold change | 0.7 fold change | – | – | – | – | – | – | – | – | – | –
4 | AChE-S: recombinant human ACHE-S, prepared from an ACHE cDNA clone (Sigma) (protein, listed as Homo sapiens) MRPPQCLLHTPSLASPLLLLLLWLLGGGVGAEGREDAELLVTVRGGRLRGIRLKTPGGPVSAFLGIPFAEPPMGPRRFLPPEPKQPWSGVVDATTFQSVCYQYVDTLYPGFEGTEMWNPNRELSEDCLYLNVWTPYPRPTSPTPVLVWIYGGGFYSGASSLDVYDGRFLVQAERTVLVSMNYRVGAFGFLALPGSREAPGNVGLLDQRLALQWVQENVAAFGGDPTSVTLFGESAGAASVGMHLLSPPSRGLFHRAVLQSGAPNGPWATVGMGEARRRATQLAHLVGCPPGGTGGNDTELVACLRTRPAQVLVNHEWHVLPQESVFRFSFVPVVDGDFLSDTPEALINAGDFHGLQVLVGVVKDEGSYFLVYGAPGFSKDNESLISRAEFLAGVRVGVPQVSDLAAEAVVLHYTDWLHPEDPARLREALSDVVGDHNVVCPVAQLAGRLAAQGARVYAYVFEHRASTLSWPLWMGVPHGYEIEFIFGIPLDPSRNYTAEEKIFAQRLMRYWANFARTGDPNEPRDPKAPQWPPYTAGAQQYVSLDLRPLEVRRGLRAQACAFWNRFLPKLLSATDTLDEAERQWKAEFHRWSSYMVHWKNQFDHYSKQDRCSDL | – | – | – | 0.6* fold change | 2.1* fold change | – | – | – | – | – | – | – | – | 0.116 | 150
